According to patent publication US20210139581A1 (Alector, published 2021):
Changes are numbered by the printed parent chain. Each block holds one binder with its values, some of them ahead of it.

Key:
human CD33 [1] = biological target: T1, human CD33 (human, UniProt P20138 18-259, limits assumed); assay: BLI (ForteBio), Fab 100 nM on immobilized CD33; kon/koff columns printed 3 rows too low, assigned by koff/kon = printed KD of AB-63.12
T1 construct: Human CD33 immobilized on the BLI sensor tip or the BIAcore C1 chip; also called Siglec-3
T1 sequence (P20138 18-259 limits assumed): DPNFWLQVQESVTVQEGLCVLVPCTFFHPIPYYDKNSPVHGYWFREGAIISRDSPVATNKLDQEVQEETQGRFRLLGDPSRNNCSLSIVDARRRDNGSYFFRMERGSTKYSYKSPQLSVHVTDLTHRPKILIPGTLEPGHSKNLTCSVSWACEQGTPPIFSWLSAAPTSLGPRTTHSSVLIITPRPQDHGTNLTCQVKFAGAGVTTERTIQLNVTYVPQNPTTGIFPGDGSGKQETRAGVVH
Method: (§1) The affinities (KD) of the humanized antibodies for human CD33 were measured for each antibody by BioLayer Interferometry in a ForteBio assay according to standard techniques (Estep et al. (2013) MAbs 5(2): 270-8). […] The assay was carried out at room temperature.
(§2) The affinities of AB-H14 and its affinity-matured variants (Table 15) and AB-H63 and its affinity-matured variants (Table 16), for human CD33 were measured by Fortebio assay according to the method described in Example 1 above.

human CD33 [2] = biological target: T1, human CD33; assay: BLI (ForteBio), Fab 100 nM on immobilized CD33
[3] = biological target: human CD33 on primary human monocyte-derived dendritic cells (human, UniProt P20138 18-364); assay: cell-based or functional assay
Sequence of human CD33 on primary human monocyte-derived dendritic cells (P20138 18-364): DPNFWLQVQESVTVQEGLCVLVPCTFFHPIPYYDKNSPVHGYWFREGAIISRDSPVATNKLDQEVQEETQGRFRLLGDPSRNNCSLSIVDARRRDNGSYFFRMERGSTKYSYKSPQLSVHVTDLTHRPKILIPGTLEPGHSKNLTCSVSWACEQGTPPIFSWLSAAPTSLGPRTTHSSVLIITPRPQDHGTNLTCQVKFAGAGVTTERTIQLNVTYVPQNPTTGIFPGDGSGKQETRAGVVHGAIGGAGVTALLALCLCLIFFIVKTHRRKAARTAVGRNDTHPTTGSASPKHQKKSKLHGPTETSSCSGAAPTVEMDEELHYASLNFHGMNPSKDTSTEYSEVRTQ

human CD33 [4] = biological target: T1, human CD33; assay: BLI (ForteBio), Fab 100 nM on immobilized CD33; kon/koff columns printed 3 rows too low, assigned by koff/kon = printed KD of AB-63.14
Method: as §1, §2

human CD33 [5] = biological target: T1, human CD33; assay: BLI (ForteBio), Fab 100 nM on immobilized CD33; kon/koff columns printed 3 rows too low, assigned by koff/kon = printed KD of AB-63.13
Method: as §1, §2

human CD33 [6] = biological target: T1, human CD33; assay: BLI (ForteBio), Fab 100 nM on immobilized CD33; kon/koff columns printed 3 rows too low, assigned by koff/kon = printed KD of AB-63.15
Method: as §1, §2

koff (human CD33 [1]): 0.0002 s⁻¹ | kon (human CD33 [1]): 723000 M⁻¹ s⁻¹ | Fold affinity improvement over parental Ab (AB-H63) (human CD33 [2]): 9.84 fold | Kd (human CD33 [2]): 0.277 nM | Maximal Downregulation (% CD33 remaining) [3]: 27.5% | Receptor downregulation (EC50) [3]: 0.035 nM
B1: AB-63.12 (antibody, V domains shown)
VH: QVQLVQSGAEVKKPGASVKVSCKASGYTFTDYNFHWVRQAPGQGLEWIGFIYPSNGITGYAQKFTGRVTMTVDTSTSTVYMELSSLRSEDTAVYYCARSTVDYFDDWGQGTLVTVSS
VL: DIVLTQSPDSLAVSLGERATINCRASQDVSTSTYSYMHWYQQKPGQPPKLLIKYASNVESGVPDRFSGSGSGTDFTLTISSLQAEDVAVYYCQHSWAIPLTFGQGTKLEIK

koff (human CD33 [4]): 0.0002 s⁻¹ | kon (human CD33 [4]): 819000 M⁻¹ s⁻¹ | Fold affinity improvement over parental Ab (AB-H63) (human CD33 [2]): 11.2 fold | Kd (human CD33 [2]): 0.244 nM | Maximal Downregulation (% CD33 remaining) [3]: 25.3% | Receptor downregulation (EC50) [3]: 0.0519 nM
B2: AB-63.14 (antibody, V domains shown)
VH: B1 VH with A16S, F34L, T65Q, T100D, D106Y
VL: B1 VL with N22D, R24K, V58L, A97E

koff (human CD33 [5]): 0.00023 s⁻¹ | kon (human CD33 [5]): 1.02e+06 M⁻¹ s⁻¹ | Fold affinity improvement over parental Ab (AB-H63) (human CD33 [2]): 12.1 fold | Kd (human CD33 [2]): 0.225 nM | Maximal Downregulation (% CD33 remaining) [3]: 25.5% | Receptor downregulation (EC50) [3]: 0.0448 nM
B3: AB-63.13 (antibody, V domains shown)
VH: B1 VH with F34L, T58R, T65Q, T100D, D106Y
VL: B1 VL with D28S, V58L, W96E, A97E

koff (human CD33 [6]): 0.000204 s⁻¹ | kon (human CD33 [6]): 903000 M⁻¹ s⁻¹ | Fold affinity improvement over parental Ab (AB-H63) (human CD33 [2]): 12.1 fold | Kd (human CD33 [2]): 0.225 nM | Maximal Downregulation (% CD33 remaining) [3]: 27.5% | Receptor downregulation (EC50) [3]: 0.0476 nM
B4: AB-63.15 (antibody, V domains shown)
VH: B1 VH with F34Y, T65Q, T100D, D106L
VL: B1 VL with A97E, K111E
